PMC8960874 (Nature Communications, 2022)

Biological target: T1, WT ectodomain of the SARS-CoV-2 spike trimer (SARS-CoV-2, original …, stabilised)
T1 construct: also called S trimer; prefusion spike trimer ectodomain
Test: cryo-EM structure
Conditions: both partners purified

B1: Clone 6 Fab (Fab, V domains shown)
VH: QVQLQQSAAELARPGASVKMSCKASGYTFTSYTMHWVKQRPGQGLEWIGYINPTSGYTEYNQNFKDKTTLTADKSSSTAYMQLNSLTSEDSAVYYCAREGHRVGPAYWGQGTLVTVSA
VL: not shown
notes: also called Fab6; Fab clone 6
  stoichiometry N: 3 Fab molecules per S trimer

B2: Clone 2 Fab (Fab, V domains shown)
VH: EVQLQQSGPELVKPGASVKISCKASGYSFTGYSMNWMKQSPEKSLEWIGEINPSTGGTTDNQKFKAKATLTVDKSSSTAYMQLKSLTSEDSAVYYCARSRGDYWGQGTSVTVSS
VL: DIVLTQSPASLAVSLGQRATISCRASESVEYYGTSLMQWYQQKPGQPPKVLIYAASNVESGVPARFSGSGSGTDFSLNIHPVEEDDIAMYFCQQSRKVPWTFGGGTKLEIK
notes: also called Fab2; Fab clone 2
  stoichiometry N: 3 Fab molecules per S trimer
